Laboratory results: patent US20250051449A1 (SURFACE ONCOLOGY, published 2025)

T1: human CD112R expressed on Jurkat cells (human, UniProt Q6DKI7 1-326)
T1 construct: whole, on cells; Used for both Jurkat-CD112R OE cells and wild type Jurkat cells; which cells is said under assay; also called PVRIG; Jurkat-CD112R OE
T1 sequence (looked up): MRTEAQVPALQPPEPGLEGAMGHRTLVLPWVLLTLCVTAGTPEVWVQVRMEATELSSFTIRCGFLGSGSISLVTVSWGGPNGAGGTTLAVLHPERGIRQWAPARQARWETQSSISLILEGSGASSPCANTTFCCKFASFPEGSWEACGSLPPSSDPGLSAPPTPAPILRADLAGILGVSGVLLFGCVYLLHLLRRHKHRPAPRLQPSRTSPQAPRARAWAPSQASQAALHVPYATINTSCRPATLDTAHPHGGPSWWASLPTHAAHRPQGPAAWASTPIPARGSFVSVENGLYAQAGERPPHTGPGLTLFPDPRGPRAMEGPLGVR

T2: CD112R-hIgG4 fusion protein (human, UniProt Q6DKI7 41-171, limits assumed)
T2 construct: also called human CD112R-hIgG4; not shown: human IgG4 portion (hIgG4)
T2 sequence (looked up): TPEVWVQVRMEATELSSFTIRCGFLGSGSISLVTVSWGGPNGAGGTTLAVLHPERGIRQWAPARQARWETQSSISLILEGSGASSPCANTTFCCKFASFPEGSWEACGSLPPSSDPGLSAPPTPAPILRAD


Legend:
[1] = target: T1, human CD112R expressed on Jurkat cells; experiment: flow cytometry, Jurkat cells over-expressing human CD112R, 0.63 ug/mL antibody
Protocol: (§1) The ability of anti-CD112R antibodies to bind to CD112R expressed on cells was evaluated. 1×10⁵ Jurkat cells (acute T cell leukemia cell line, ATCC #TIB-152) that were either wild type or engineered to over-express human CD112R (Jurkat-CD112R OE) were added to each well of a 96-well V bottom plate and stained with either anti-CD112R antibodies or an IgG1 isotype control (0.63 μg/mL) for 1 hour at 4° C. Cells were washed twice with PBS+2% FCS and resuspended with Alexa Fluor® 647 anti-human IgG Fc antibody (Biolegend, Cat #409320) diluted 1:100 in PBS+2% FCS and incubated at 4° C. for 30 minutes. Cells were subsequently washed twice and resuspended in PBS+2% FCS. Cellular data was acquired using a LSRFortessa X-20 (BD Biosciences) and analyzed with FlowJo software (Tree Star).
Results are depicted in FIG. 1. Quantitation of antibody binding to Jurkat-CD112R OE cells was assessed by the geometric mean fluorescent intensity (gMFI) of the Alexa Fluor® 647 signal.

[2] = target: T1, human CD112R expressed on Jurkat cells; experiment: flow cytometry competition on Jurkat-CD112R OE cells; competitor biotinylated his-tagged human CD112
Protocol: The ability of anti-CD112R antibodies to block CD112 binding to CD112R expressing cells was evaluated. 1×10⁵ Jurkat cells (acute T cell leukemia cell line, ATCC #TIB-152) that were engineered to over-express human CD112R (Jurkat-CD112R OE) were added to each well of a 96-well V bottom plate and stained with serial dilutions of either anti-CD112R antibodies or an IgG1 isotype control (highest concentration, 10 μg/mL) for 1 hour at 4° C. Cells were washed twice with PBS+2% FCS and resuspended with biotinylated his-tagged human CD112 (3 μg/mL) (BPS Bioscience, #71234) and PE Streptavidin (5 μg/mL) (Biolegend, #405204) in PBS+2% FCS and incubated at 2 hours at 4° C. Cells were subsequently washed twice and resuspended in PBS+2% FCS. Cellular data was acquired using a LSRFortessa X-20 (BD Biosciences) and analyzed with FlowJo software (Tree Star).
Results are depicted in FIG. 2A and Table 2. […] Percent inhibition was calculated as [100−((test sample MFI/Max MFI)*100%)]

[3] = target: T2, CD112R-hIgG4 fusion protein; experiment: blocking ELISA: coated CD112R-hIgG4, antibody, then biotinylated CD112 Fc
Protocol: The ability of anti-CD112R antibodies to block human CD112R was also evaluated by ELISA. Briefly, 96 well Nunc Maxisorp plates were coated with 1 μg/mL of a CD112R-hIgG4 fusion protein in PBS overnight at 4° C. […] After blocking, plates were washed 6× with PBST. Next, 100 μl of anti-CD112R antibodies in PBS+1% BSA was added at a final starting concentration of 10 μg/mL, with 4-fold serial dilutions. Plates were incubated at room temperature for 1.5 hours. Next plates were washed 6× with PBST and then incubated with 1 μg/ml CD112 Fc protein (R&D Systems, Cat #9317-N2-050) that was biotinylated with a sulfo-NHS biotinylation kit (Thermo Fisher, Cat #21925) in 100 μl of PBS+1% BSA for 1 hour at room temperature. Plates were then washed 6× with PBST and subsequently incubated with streptavidin-HRP (Biolegend, Cat #405210) diluted in PBS+1% BSA according to the manufacturer recommendation for 1 hour at room temperature. Following this incubation, plates were then washed 6× with PBST and developed with TMB substrate (Life Technologies, Cat #002023). The reaction was stopped with an equal volume of stop solution (Life Technologies, Cat #SS04). Absorbance at 450 nm (O.D. 450) was measured on a SpectraMax plate reader.
Results are depicted in FIG. 2B and Table 2. […] Percent inhibition was calculated as [100−((test sample O.D. 450/Max 0.D. 450)*100%)] Max O.D. 450 was defined as absorbance at 450 nm in the absence of antibody.

[4] = target: T1, human CD112R expressed on Jurkat cells; experiment: flow cytometry, wild type Jurkat cells, 0.63 ug/mL antibody
Protocol: as §1

gMFI (fold increase over isotype) [1]	CD112 blocking max inhibition (%) [2] [%]	IC50 [2] [ng/mL]	CD112 blocking max inhibition ELISA (%) [3] [%]	gMFI (fold increase over isotype) [4]	Binder
55.7 fold increase over isotype	96.8	0.69	96.3	4.6 fold increase over isotype	Antibody 10 (antibody, V domains shown, Purified as IgG; compared with an IgG1 isotype control and detected with anti-human IgG Fc; also called antibody clone number 10; clone 10) VH: EVQLVESGGGLVQPGRSLRLSCAASGFTFDDYAVHWVRQAPGKGLEWVSGISWSSGLIGYADSVKGRFTISRDNAKNSLYLQMNSLRAEDTAVYYCAKGPPTYQDYFDLWGRGTLVTVSS VL: EIVLTQSPATLSLSPGERATLSCRASQSVSRYLAWYQQKPGQAPRLLIYDASNRATGIPARFSGSGSGTDFTLTISSLEPEDFAVYYCQQVSFFPPITFGGGTKVEIK
51.7 fold increase over isotype	95.5	0.19	97.2	3.8 fold increase over isotype	Antibody 38 (antibody, V domains shown, Purified as IgG; compared with an IgG1 isotype control and detected with anti-human IgG Fc; also called antibody clone number 38; clone 38) VH: EVQLLESGGGLVQPGGSLRLSCAASGFTFSGHLMSWVRQAPGKGLEWVSAISGSAGETYYADSVKGRFTISRDNSKNTLYLQMNSLRAEDTAVYYCARDAYYDDWSGWADWYFDLWGRGTLVTVSS VL: EIVLTQSPATLSLSPGERATLSCRASQSVSRYLAWYQQKPGQAPRLLIYDASNRATGIPARFSGSGSGTDFTLTISSLEPEDFAVYYCQQVSLLPPTFGGGTKVEIK
46.9 fold increase over isotype	97.7	0.81	96.8	4.8 fold increase over isotype	Antibody 44 (antibody, V domains shown, Purified as IgG; compared with an IgG1 isotype control and detected with anti-human IgG Fc; also called antibody clone number 44; clone 44) VH: QVQLVQSGAEVKKPGSSVKVSCKASGGTFDNYYISWVRQAPGQGLEWMGGIFPIFGTANYAQKFQGRVTITADESTSTAYMELSSLRSEDTAVYYCAREVGHYSGSPYYMDVWGKGTTVTVSS VL: DIQMTQSPSTLSASVGDRVTITCRASQSINSWLAWYQQKPGKAPKLLISDASSLESGVPSRFSGSGSGTEFTLTISSLQPDDFATYYCQQVGPYLTFGGGTKVEIK
63.9 fold increase over isotype	94.1	0.83	97	4.7 fold increase over isotype	Antibody 2 (antibody, V domains shown, Purified as IgG; compared with an IgG1 isotype control and detected with anti-human IgG Fc; also called antibody clone number 2; clone 2) VH: EVQLVESGGGLVKPGGSLRLSCAASGFTFSEYTMNWVRQAPGKGLEWVSAIVGSGDSTYYADSVKGRFTISRDNSKNTLYLQMNSLRAEDTAVYYCAKDYSSGDWIDYGMDVWGQGTTVTVSS VL: DIQMTQSPSSLSASVGDRVTITCQASQDISNYLNWYQQKPGKAPKLLIYDASNLATGVPSRFSGSGSGTDFTFTISSLQPEDIATYYCQQFDLLPPTFGGGTKVEIK
63.3 fold increase over isotype	97	0.17	97.4	3.8 fold increase over isotype	Antibody 5 (antibody, V domains shown, Purified as IgG; compared with an IgG1 isotype control and detected with anti-human IgG Fc; also called antibody clone number 5; clone 5) VH: EVQLLESGGGLVQPGGSLRLSCAASGFTFSDYAMIWVRQAPGKGLEWVSAISGGGESTYYADSVKGRFTISRDNSKNTLYLQMNSLRAEDTAVYYCAKDYSSGDWIDYGMDVWGQGTTVTVSS VL: DIQMTQSPSSLSASVGDRVTITCQASQDISNYLNWYQQKPGKAPKLLIYDASNLATGVPSRFSGSGSGTDFTFTISSLQPEDIATYYCQQFDLLPPTFGGGTKVEIK
53.2 fold increase over isotype	97.9	0.51	97	4 fold increase over isotype	Antibody 15 (antibody, V domains shown, Purified as IgG; compared with an IgG1 isotype control and detected with anti-human IgG Fc; also called antibody clone number 15; clone 15) VH: EVQLVESGGGLVQPGRSLRLSCTASGFTFGDVAMSWFRQAPGKGLEWVGYIGSKAYGGETEYTASVKGRFTISRDGSKSIAYLQMNSLKTEDTAVYYCARAGHSYGSIASNWFDPWGQGTLVTVSS VL: DIQMTQSPSSLSASVGDRVTITCRASQSISSYLNWYQQKPGKAPKLLIYGASSLQSGVPSRFSGSGSGTDFTLTISSLQPEDFATYYCQQGFYTPWTFGGGTKVEIK
